Test results reported in article PMC6392328.

Legend:
[1] = target: ASB9 bait in the pAcGFP1-C vector (pAcGFP1-ASB9) (bovine); assay: co-IP; Matchmaker Co-IP system; HEK 293 cells co-transfected with the pAcGFP1 bait and the pProLabel prey; co-immunoprecipitation with protein G Plus/A agarose beads, read by the ProLabel enzyme complementation assay (RLU every 5 min for 45 min)
[2] = target: pAcGFP1-53 (positive control bait) (UniProt P02340); assay: as above
Chain of UniProt P02340 (P02340 whole entry): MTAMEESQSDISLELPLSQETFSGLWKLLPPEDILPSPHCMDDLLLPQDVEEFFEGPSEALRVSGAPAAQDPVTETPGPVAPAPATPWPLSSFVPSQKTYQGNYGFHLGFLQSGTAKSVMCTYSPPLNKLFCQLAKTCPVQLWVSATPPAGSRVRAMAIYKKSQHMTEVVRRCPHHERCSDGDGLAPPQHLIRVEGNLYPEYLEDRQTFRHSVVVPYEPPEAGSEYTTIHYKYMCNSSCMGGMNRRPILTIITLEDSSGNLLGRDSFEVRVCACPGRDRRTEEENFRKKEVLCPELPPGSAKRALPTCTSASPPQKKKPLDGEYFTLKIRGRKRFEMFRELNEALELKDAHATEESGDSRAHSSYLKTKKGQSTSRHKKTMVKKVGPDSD

| Substance | fold induction of ProLabel enzymatic activity after co-IP, against the negative control, at 40 minutes [1] | fold induction of ProLabel enzymatic activity after co-IP (positive control) [2] |
| --- | --- | --- |
| Tumor necrosis factor alpha-induced protein 6 (TNFAIP6) in the pProLabel-C vector (natural protein) | 18 fold | – |
| Hypoxia inducible factor 1, alpha subunit (HIF1A) in the pProLabel-C vector (natural protein) | 13 fold | – |
| ProLabel-T (positive control prey) (natural protein) | – | 37 fold |
